Data reported in the supplement of paper PMC7877785.
± gives the uncertainty stated by the source.

Assay: self-splicing fitness, log relative to wild type (ln ratio); higher = more splicing; Tetrahymena group I intron in knt gene, E. coli kanamycin selection, DiMSum; sequences stand for … in CUCUCU…GGAGGGAAAAGUUAUCAGGCAUGCACCUGGUAGCUAGUCUUUAAACCAAUAGAUUGCAUCGGUUUAAAAGGCAAGACCGUCAAAUUGCGGGAAAGGGGUCAACAGCCGUUCAGUACCAAGUCUCAGGGGAAACUUUGAGAUGGCCUUGCAAAGGGUAUGGUAAUAAGCUGACGGACAUGGUCCUAACCACGCAGCCAAGUCCUAAGUCAACAGAUCUUCUGUUGAUAUGGAUGCAGUUCACAGACUAAAUGUCGGUCGGGGAAGAUGUAUUCUUCUCAUAAGAUAUAGUCGGACCUCUCCUUAAUGGGAGCUAGCGGAUGAAGUGAUGCAACACUGGAGCCGCUGGGAACUAAUUUGUAUGCGAAAGUAUAUUGAUUAGUUUUGGAGUACUCGUGGUCG
How it was run: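 Colonies from six replicate transformations of E. coli BL21(DE3) were pooled and amplicon-sequenced on an Illumina HiSeq 2500. The library placed an intron with all eight P1ex-region nucleotides randomised inside the knt kanamycin-resistance gene on pET-22b(+), and cells grew overnight at 37°C or 30°C on LB agar with or without 25 μg/mL kanamycin (plus 100 μg/mL carbenicillin, 50 μM IPTG, 0.2% rhamnose). Fitness is the DiMSum error-weighted combination of wild-type-normalised replicate fold changes, kanamycin versus none.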

## UACCAGCAAUAUUACGCUCU
30 °C
  self-splicing fitness (ln): -0.618 ± 0.072
37 °C
  self-splicing fitness (ln): 0.00956 ± 0.082

## GUCGAGCAAUAUUACGCCCC
30 °C
  self-splicing fitness (ln): -1.19 ± 0.37
37 °C
  self-splicing fitness (ln): -1.01 ± 0.31

## CUAAAGCAAUAUUACGCUUA
30 °C
  self-splicing fitness (ln): -3.75 ± 0.37
37 °C
  self-splicing fitness (ln): -2.75 ± 0.39

## AGAAAGCAAUAUUACGAUGG
30 °C
  self-splicing fitness (ln): -2.28 ± 0.15
37 °C
  self-splicing fitness (ln): -3.17 ± 0.35

## CUGAAGCAAUAUUACGCGGA
30 °C
  self-splicing fitness (ln): -3.45 ± 0.16
37 °C
  self-splicing fitness (ln): -1.7 ± 0.2

## GUUCAGCAAUAUUACGUGUA
30 °C
  self-splicing fitness (ln): -0.88 ± 0.078
37 °C
  self-splicing fitness (ln): -0.647 ± 0.071

## GCUGAGCAAUAUUACGGGCU
30 °C
  self-splicing fitness (ln): -1.89 ± 0.31

## CUAAAGCAAUAUUACGAACG
30 °C
  self-splicing fitness (ln): 0.195 ± 0.089
37 °C
  self-splicing fitness (ln): 0.868 ± 0.12

## AUUAAGCAAUAUUACGUAUG
30 °C
  self-splicing fitness (ln): -2.74 ± 0.25
37 °C
  self-splicing fitness (ln): -1.47 ± 0.21

## AAAUAGCAAUAUUACGCGGG
30 °C
  self-splicing fitness (ln): -3.02 ± 0.19
37 °C
  self-splicing fitness (ln): -1.23 ± 0.12

## CCUGAGCAAUAUUACGACGA
30 °C
  self-splicing fitness (ln): -2.99 ± 0.24
37 °C
  self-splicing fitness (ln): -1.61 ± 0.17

## CAUAAGCAAUAUUACGGCCC
30 °C
  self-splicing fitness (ln): -3.92 ± 0.4

## ACAUAGCAAUAUUACGUGAG
30 °C
  self-splicing fitness (ln): -0.863 ± 0.036
37 °C
  self-splicing fitness (ln): -0.206 ± 0.062

## CGACAGCAAUAUUACGUUAU
30 °C
  self-splicing fitness (ln): -3.7 ± 0.13
37 °C
  self-splicing fitness (ln): -2.23 ± 0.12

## UGCUAGCAAUAUUACGUGGC
30 °C
  self-splicing fitness (ln): -3.1 ± 0.32
37 °C
  self-splicing fitness (ln): -2.6 ± 0.35

## CUUCAGCAAUAUUACGAUUA
30 °C
  self-splicing fitness (ln): -3.05 ± 0.41
37 °C
  self-splicing fitness (ln): -1.55 ± 0.22

## CUGUAGCAAUAUUACGGUGG
30 °C
  self-splicing fitness (ln): -3.05 ± 0.14
37 °C
  self-splicing fitness (ln): -1.49 ± 0.11

## UCGCAGCAAUAUUACGGAAU
30 °C
  self-splicing fitness (ln): -2.75 ± 0.27
37 °C
  self-splicing fitness (ln): -2.5 ± 0.26

## UUAGAGCAAUAUUACGGUUA
30 °C
  self-splicing fitness (ln): -0.618 ± 0.15
37 °C
  self-splicing fitness (ln): -1.17 ± 0.23

## AGCGAGCAAUAUUACGAAAU
30 °C
  self-splicing fitness (ln): -2.79 ± 0.23
37 °C
  self-splicing fitness (ln): -2.39 ± 0.42

## CAUAAGCAAUAUUACGAUAG
30 °C
  self-splicing fitness (ln): 0.359 ± 0.072
37 °C
  self-splicing fitness (ln): 0.232 ± 0.084

## GUUGAGCAAUAUUACGCUAG
30 °C
  self-splicing fitness (ln): -3.01 ± 0.44

## AAAAAGCAAUAUUACGGUUU
30 °C
  self-splicing fitness (ln): -0.478 ± 0.05
37 °C
  self-splicing fitness (ln): -0.225 ± 0.064

## UCGAAGCAAUAUUACGACUU
30 °C
  self-splicing fitness (ln): -1.14 ± 0.21
37 °C
  self-splicing fitness (ln): -2.8 ± 0.23

## GCUUAGCAAUAUUACGCGAA
30 °C
  self-splicing fitness (ln): -2.55 ± 0.11
37 °C
  self-splicing fitness (ln): -1.98 ± 0.11

## UUGUAGCAAUAUUACGUAUU
30 °C
  self-splicing fitness (ln): -3.29 ± 0.32
37 °C
  self-splicing fitness (ln): -2.45 ± 0.3

## UAGCAGCAAUAUUACGUAGG
30 °C
  self-splicing fitness (ln): -1.62 ± 0.082
37 °C
  self-splicing fitness (ln): -1.35 ± 0.1

## UUACAGCAAUAUUACGGACU
30 °C
  self-splicing fitness (ln): -2.05 ± 0.17
37 °C
  self-splicing fitness (ln): -1.9 ± 0.17

## CUUUAGCAAUAUUACGCACA
37 °C
  self-splicing fitness (ln): -1.19 ± 0.35

## UUUGAGCAAUAUUACGAGUU
37 °C
  self-splicing fitness (ln): -1.87 ± 0.42

## UUGGAGCAAUAUUACGUCCA
30 °C
  self-splicing fitness (ln): -2.2 ± 0.2
37 °C
  self-splicing fitness (ln): -1.74 ± 0.23

## UCGAAGCAAUAUUACGUGGG
30 °C
  self-splicing fitness (ln): -2.34 ± 0.14
37 °C
  self-splicing fitness (ln): -2.18 ± 0.18

## GUUCAGCAAUAUUACGCAGC
30 °C
  self-splicing fitness (ln): -3.43 ± 0.29
37 °C
  self-splicing fitness (ln): -1.1 ± 0.2

## CAAAAGCAAUAUUACGUUGG
30 °C
  self-splicing fitness (ln): -2.47 ± 0.088
37 °C
  self-splicing fitness (ln): -1.48 ± 0.1

## CCACAGCAAUAUUACGCCGA
30 °C
  self-splicing fitness (ln): -3.67 ± 0.26
37 °C
  self-splicing fitness (ln): -2.26 ± 0.17

## CGGCAGCAAUAUUACGCAAU
30 °C
  self-splicing fitness (ln): -3.47 ± 0.2
37 °C
  self-splicing fitness (ln): -1.77 ± 0.19

## AUCCAGCAAUAUUACGAGGU
30 °C
  self-splicing fitness (ln): -3.37 ± 0.23
37 °C
  self-splicing fitness (ln): -2.65 ± 0.22

## ACGAAGCAAUAUUACGCACC
30 °C
  self-splicing fitness (ln): -0.755 ± 0.16
37 °C
  self-splicing fitness (ln): -0.0218 ± 0.22

## UUCGAGCAAUAUUACGGAUU
30 °C
  self-splicing fitness (ln): -3.84 ± 0.23
37 °C
  self-splicing fitness (ln): -3.1 ± 0.29

## GGGCAGCAAUAUUACGGAAC
30 °C
  self-splicing fitness (ln): -1.22 ± 0.1
37 °C
  self-splicing fitness (ln): -1.75 ± 0.15

## UCGCAGCAAUAUUACGAUUC
30 °C
  self-splicing fitness (ln): -3.5 ± 0.48

## UAAGAGCAAUAUUACGCACC
37 °C
  self-splicing fitness (ln): -1.93 ± 0.41

## CUGGAGCAAUAUUACGAGUA
30 °C
  self-splicing fitness (ln): -2.08 ± 0.26
37 °C
  self-splicing fitness (ln): -3.21 ± 0.35

## ACCAAGCAAUAUUACGACGA
30 °C
  self-splicing fitness (ln): -1.11 ± 0.12
37 °C
  self-splicing fitness (ln): -0.623 ± 0.13

## AUUUAGCAAUAUUACGCCUC
37 °C
  self-splicing fitness (ln): -0.949 ± 0.27
